The results in this text go back to publication PMC11463468.

Data set [1] deals with T1, MBD-Halo-AF660 (Homo sapiens, UniProt Q9UIS9 1-77).
T1 sequence: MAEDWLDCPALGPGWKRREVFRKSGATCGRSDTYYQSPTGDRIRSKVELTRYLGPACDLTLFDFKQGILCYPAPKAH
The data set is described as follows: single-molecule TIRF.

Data set [2] deals with T1, MBD-Halo-AF660. The data set is described as follows: single-molecule TIRF. The source holds these as a separate data set.
Data set [3] concerns the target T1, MBD-Halo-AF660. The data set is described as follows: EMSA. (In general: In EMSA bound probe runs differently from free probe, usually more slowly.)
The target of data set [4] is T2, MBD-Halo (MBD1 MBD-GGGSG-HaloTag) (Homo sapiens, UniProt Q9UIS9 1-77).
T2 sequence: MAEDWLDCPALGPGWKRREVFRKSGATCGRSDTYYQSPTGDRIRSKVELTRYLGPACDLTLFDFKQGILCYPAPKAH
Nature of the data set: EMSA.

The target in data set [5] is T1, MBD-Halo-AF660. The data set is described as follows: single-molecule TIRF. The source holds these as a separate data set.
For data set [6], the target named is T1, MBD-Halo-AF660. The data set is described as follows: single-molecule TIRF. The source holds these as a separate data set.
Data set [7] concerns the target T1, MBD-Halo-AF660. Nature of the data set: single-molecule TIRF. The source holds these as a separate data set.
Data set [8] has as its target T1, MBD-Halo-AF660. The data set is described as follows: single-molecule TIRF. The source holds these as a separate data set.
In data set [9] the target is T1, MBD-Halo-AF660. Nature of the data set: single-molecule TIRF. This is another data set of the same source.
The target in data set [10] is T1, MBD-Halo-AF660. The data set is described as follows: single-molecule TIRF. This is another data set of the same source.
Data set [11] has as its target T1, MBD-Halo-AF660. The data set is described as follows: single-molecule TIRF. The source holds these as a separate data set.
Data set [12] concerns the target T1, MBD-Halo-AF660. The data set is described as follows: single-molecule TIRF. The source holds these as a separate data set.
For data set [13], the target named is T1, MBD-Halo-AF660. Nature of the data set: single-molecule TIRF. The source holds these as a separate data set.
Data set [14] concerns the target T1, MBD-Halo-AF660. The data set is described as follows: single-molecule TIRF. The source holds these as a separate data set.
The target in data set [15] is T1, MBD-Halo-AF660. The data set is described as follows: single-molecule TIRF. This is another data set of the same source.

ATAATTAATAGCATCAGCAGGAAGAC (ssDNA) [CPO alone (NTC)]: the binding result in [1] was “no binding”.

B1: SM single-molecule (M7-A39m-CPO) (dsDNA)
DNA 1: GTCTTCCTGCTGATGCAATCCGCTAGGTCGCGAGTCTCCGCCGCGAGAGGGCCGG
DNA 2: CCGGCCCTCTCGCGGCGGAGACTCGCGACCTAGCGGATT
DNA 3: ATAATTAATAGCATCAGCAGGAAGAC
modifications: 5mC strand 1: 21,29,31,39,42,44,53; strand 2: 2,11,13,16,24,26,34
B1: the binding result in data set [2] is given as “binds”.

B2: SM 55 bp (M7/M7_rev) (dsDNA)
DNA 1: GTCTTCCTGCTGATGCAATCCGCTAGGTCGCGAGTCTCCGCCGCGAGAGGGCCGG
DNA 2: CCGGCCCTCTCGCGGCGGAGACTCGCGACCTAGCGGATTGCATCAGCAGGAAGAC
modifications: 5mC strand 1: 21,29,31,39,42,44,53; strand 2: 2,11,13,16,24,26,34
Turning to B2, the binding result in data set [3] and in data set [4] was “binds” throughout.

B3: M4a-CP (structured_DNA)
DNA 1: GTCTTCCTGCTGATGCAATCCGCTAGGTCGCGAGTCTCCGCCGCGAGAGGGCCGG
DNA 2: GCATCAGCAGGAAGAC
modifications: 5mC strand 1: 29,31,42,44
With B3, the binding result in data set [5] is “binds”.

B4: M7-A17O-CPO (mixed)
DNA 1: GTCTTCCTGCTGATGCAATCCGCTAGGTCGCGAGTCTCCGCCGCGAGAGGGCCGG
DNA 2: CTTATCTGTTTCGCGACCTAGCGGATT
DNA 3: ATAATTAATAGCATCAGCAGGAAGAC
modifications: 5mC strand 1: 21,29,31,39,42,44,53
Consider B4, for which the binding result in data set [6] is “binds”.

B5: M7-A39-CP (dsDNA)
DNA 1: GTCTTCCTGCTGATGCAATCCGCTAGGTCGCGAGTCTCCGCCGCGAGAGGGCCGG
DNA 2: CCGGCCCTCTCGCGGCGGAGACTCGCGACCTAGCGGATT
DNA 3: GCATCAGCAGGAAGAC
modifications: 5mC strand 1: 21,29,31,39,42,44,53
Consider B5, for which the binding result in data set [7] is “no binding”.

B6: M7-CP (structured_DNA)
DNA 1: GTCTTCCTGCTGATGCAATCCGCTAGGTCGCGAGTCTCCGCCGCGAGAGGGCCGG
DNA 2: GCATCAGCAGGAAGAC
modifications: 5mC strand 1: 21,29,31,39,42,44,53
As for B6, the binding result in data set [8] is “binds”.

B7: M3a-A39m-CP (dsDNA)
DNA 1: GTCTTCCTGCTGATGCAATCCGCTAGGTCGCGAGTCTCCGCCGCGAGAGGGCCGG
DNA 2: CCGGCCCTCTCGCGGCGGAGACTCGCGACCTAGCGGATT
DNA 3: GCATCAGCAGGAAGAC
modifications: 5mC strand 1: 39,42,44; strand 2: 2,11,13,16,24,26,34
In the case of B7, in data set [9], the binding result is reported as “binds”.

B8: M1b-A39m-CP (dsDNA)
DNA 1: GTCTTCCTGCTGATGCAATCCGCTAGGTCGCGAGTCTCCGCCGCGAGAGGGCCGG
DNA 2: CCGGCCCTCTCGCGGCGGAGACTCGCGACCTAGCGGATT
DNA 3: GCATCAGCAGGAAGAC
modifications: 5mC strand 1: 53; strand 2: 2,11,13,16,24,26,34
For B8, the binding result in [7] is “no binding”.

B9: M7-CPO (structured_DNA)
DNA 1: GTCTTCCTGCTGATGCAATCCGCTAGGTCGCGAGTCTCCGCCGCGAGAGGGCCGG
DNA 2: ATAATTAATAGCATCAGCAGGAAGAC
modifications: 5mC strand 1: 21,29,31,39,42,44,53
B9: the binding result in [10] was “binds”.

B10: M2c-A39m-CP (dsDNA)
DNA 1: GTCTTCCTGCTGATGCAATCCGCTAGGTCGCGAGTCTCCGCCGCGAGAGGGCCGG
DNA 2: CCGGCCCTCTCGCGGCGGAGACTCGCGACCTAGCGGATT
DNA 3: GCATCAGCAGGAAGAC
modifications: 5mC strand 1: 42,53; strand 2: 2,11,13,16,24,26,34
B10: the binding result in data set [7] is given as “no binding”.

B11: M4a-A39m-CP (dsDNA)
DNA 1: GTCTTCCTGCTGATGCAATCCGCTAGGTCGCGAGTCTCCGCCGCGAGAGGGCCGG
DNA 2: CCGGCCCTCTCGCGGCGGAGACTCGCGACCTAGCGGATT
DNA 3: GCATCAGCAGGAAGAC
modifications: 5mC strand 1: 29,31,42,44; strand 2: 2,11,13,16,24,26,34
For the molecule B11, the binding result in data set [11] is on record as “binds”.

B12: M0-CP (structured_DNA)
DNA 1: GTCTTCCTGCTGATGCAATCCGCTAGGTCGCGAGTCTCCGCCGCGAGAGGGCCGG
DNA 2: GCATCAGCAGGAAGAC
In the case of B12, the binding result in data set [7] is given as “no binding”.

B13: M2a-A39m-CP (dsDNA)
DNA 1: GTCTTCCTGCTGATGCAATCCGCTAGGTCGCGAGTCTCCGCCGCGAGAGGGCCGG
DNA 2: CCGGCCCTCTCGCGGCGGAGACTCGCGACCTAGCGGATT
DNA 3: GCATCAGCAGGAAGAC
modifications: 5mC strand 1: 29,31; strand 2: 2,11,13,16,24,26,34
Take B13: the binding result in data set [12] was “binds”.

B14: M4a-CPO (structured_DNA)
DNA 1: GTCTTCCTGCTGATGCAATCCGCTAGGTCGCGAGTCTCCGCCGCGAGAGGGCCGG
DNA 2: ATAATTAATAGCATCAGCAGGAAGAC
modifications: 5mC strand 1: 29,31,42,44
Take B14: in [13], the binding result is listed as “binds”.

B15: M4a-A17O-CP (mixed)
DNA 1: GTCTTCCTGCTGATGCAATCCGCTAGGTCGCGAGTCTCCGCCGCGAGAGGGCCGG
DNA 2: CTTATCTGTTTCGCGACCTAGCGGATT
DNA 3: GCATCAGCAGGAAGAC
modifications: 5mC strand 1: 29,31,42,44
As to B15, in data set [14], the binding result is listed as “binds”.

B16: M7-A39O-CP (mixed)
DNA 1: GTCTTCCTGCTGATGCAATCCGCTAGGTCGCGAGTCTCCGCCGCGAGAGGGCCGG
DNA 2: CTTATCTGTTCCGGCCCTCTCGCGGCGGAGACTCGCGACCTAGCGGATT
DNA 3: GCATCAGCAGGAAGAC
modifications: 5mC strand 1: 21,29,31,39,42,44,53
In the case of B16, the binding result in data set [7] was “no binding”.

B17: M7-A17O-CP (mixed)
DNA 1: GTCTTCCTGCTGATGCAATCCGCTAGGTCGCGAGTCTCCGCCGCGAGAGGGCCGG
DNA 2: CTTATCTGTTTCGCGACCTAGCGGATT
DNA 3: GCATCAGCAGGAAGAC
modifications: 5mC strand 1: 21,29,31,39,42,44,53
Regarding B17, the binding result in data set [15] is on record as “binds”.
